# According to publication PMC3443260:
# Where two headings read alike, the source gives them in different places.
# Experiments:
# [1] = biological target: CI-MPR C-terminal DXXLL peptide (Homo sapiens) (UniProt P11717); test: ITC; details: cited from earlier work
# [2] = biological target: Flag-tagged mouse GGA2 (mouse) (UniProt Q6P5E6); test: BLI
# [3] = biological target: Flag-tagged mouse GGA2 (mouse) (UniProt Q6P5E6); test: BLI; remark: listed apart in the source
# Flag-tagged mouse GGA2 (mouse), sequence (Q6P5E6 whole entry): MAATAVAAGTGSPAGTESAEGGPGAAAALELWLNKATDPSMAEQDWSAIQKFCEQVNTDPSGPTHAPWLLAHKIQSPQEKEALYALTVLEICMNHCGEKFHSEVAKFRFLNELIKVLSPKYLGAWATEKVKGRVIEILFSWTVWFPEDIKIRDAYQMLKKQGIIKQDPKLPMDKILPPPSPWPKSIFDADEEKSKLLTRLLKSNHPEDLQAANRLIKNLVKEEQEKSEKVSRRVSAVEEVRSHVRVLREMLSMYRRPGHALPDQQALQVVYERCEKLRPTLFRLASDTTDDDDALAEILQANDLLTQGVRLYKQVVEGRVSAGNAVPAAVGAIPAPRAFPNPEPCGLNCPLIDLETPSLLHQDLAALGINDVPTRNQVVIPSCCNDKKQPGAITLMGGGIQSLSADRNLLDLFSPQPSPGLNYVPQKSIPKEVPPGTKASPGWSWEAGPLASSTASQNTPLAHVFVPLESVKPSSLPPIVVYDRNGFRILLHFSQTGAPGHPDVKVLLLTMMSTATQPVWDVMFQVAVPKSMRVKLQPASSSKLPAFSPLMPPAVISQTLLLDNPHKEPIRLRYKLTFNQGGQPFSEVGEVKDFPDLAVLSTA
# GGA2 VHS, sequence (Q9UJY4 30-166): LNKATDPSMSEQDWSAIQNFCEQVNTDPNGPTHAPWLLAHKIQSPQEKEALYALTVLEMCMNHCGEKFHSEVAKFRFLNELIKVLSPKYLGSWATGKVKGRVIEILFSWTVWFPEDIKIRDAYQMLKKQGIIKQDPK
Kd [2],koff [2],Kd [3],Substance,Kd [1]
–,–,–,GGA2 VHS (from UniProt Q9UJY4),7100 nM
150 nM,0.0052 s⁻¹,–,MBP-LRP9 30mer containing both DXXLL motifs (peptide),–
280 nM,0.0059 s⁻¹,380 nM,MBP-LRP9 30mer with the C-terminal DXXLL motif mutated to AXXAA (peptide),–
